Source: article PMC2706296 (Nature structural & molecular biology, 2009)

T1: Nup85 C-terminally tagged with a tandem affinity purification (TAP) tag (budding yeast (endogenous), UniProt P46673 1-744)
T1 sequence (looked up): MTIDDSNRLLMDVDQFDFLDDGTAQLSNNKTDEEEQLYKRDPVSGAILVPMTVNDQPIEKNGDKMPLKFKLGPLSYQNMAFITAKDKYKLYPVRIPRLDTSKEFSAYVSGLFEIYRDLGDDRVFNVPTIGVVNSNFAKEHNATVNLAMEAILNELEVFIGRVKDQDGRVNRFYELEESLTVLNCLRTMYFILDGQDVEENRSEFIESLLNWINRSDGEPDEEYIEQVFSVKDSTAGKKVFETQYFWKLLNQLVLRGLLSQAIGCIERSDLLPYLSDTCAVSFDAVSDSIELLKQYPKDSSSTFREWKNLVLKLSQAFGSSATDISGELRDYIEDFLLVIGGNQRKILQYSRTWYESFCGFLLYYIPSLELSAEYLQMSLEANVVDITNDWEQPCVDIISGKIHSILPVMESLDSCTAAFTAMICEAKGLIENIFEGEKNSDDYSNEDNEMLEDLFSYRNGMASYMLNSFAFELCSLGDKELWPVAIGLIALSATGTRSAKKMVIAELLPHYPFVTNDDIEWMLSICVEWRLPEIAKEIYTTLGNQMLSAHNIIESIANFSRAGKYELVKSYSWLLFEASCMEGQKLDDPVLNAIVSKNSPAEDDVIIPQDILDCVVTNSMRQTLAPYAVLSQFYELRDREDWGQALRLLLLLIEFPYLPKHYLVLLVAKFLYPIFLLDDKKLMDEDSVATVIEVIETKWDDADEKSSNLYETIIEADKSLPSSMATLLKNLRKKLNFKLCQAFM


Assays:
Nup84 = Nup84 (budding yeast (endogenous), UniProt P52891 1-726); experiment: negative-stain EM, random conical tilt 3D reconstruction
[1] = biological target: T1, Nup85 C-terminally tagged with a tandem …; experiment: affinity purification with mass spectrometry

Nup84, sequence (P52891 whole entry): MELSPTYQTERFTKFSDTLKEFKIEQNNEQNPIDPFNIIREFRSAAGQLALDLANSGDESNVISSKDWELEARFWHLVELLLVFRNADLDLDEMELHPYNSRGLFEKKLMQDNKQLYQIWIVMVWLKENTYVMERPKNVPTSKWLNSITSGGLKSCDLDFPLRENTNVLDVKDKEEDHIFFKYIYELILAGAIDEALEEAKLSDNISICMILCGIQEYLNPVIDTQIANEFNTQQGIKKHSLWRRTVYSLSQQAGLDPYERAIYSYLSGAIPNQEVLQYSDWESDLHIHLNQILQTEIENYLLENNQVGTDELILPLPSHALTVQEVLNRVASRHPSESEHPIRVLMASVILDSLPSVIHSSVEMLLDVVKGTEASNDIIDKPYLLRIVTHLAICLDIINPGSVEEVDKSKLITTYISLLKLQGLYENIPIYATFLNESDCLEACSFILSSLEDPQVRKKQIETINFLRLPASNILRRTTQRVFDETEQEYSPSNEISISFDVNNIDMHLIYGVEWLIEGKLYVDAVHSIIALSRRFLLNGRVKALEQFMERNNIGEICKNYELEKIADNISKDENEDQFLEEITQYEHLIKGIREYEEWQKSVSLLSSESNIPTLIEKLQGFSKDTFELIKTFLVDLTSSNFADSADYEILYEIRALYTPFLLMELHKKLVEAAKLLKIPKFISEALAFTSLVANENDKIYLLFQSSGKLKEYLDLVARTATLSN

binding result (Nup84) | binding result [1] | Binder
binds |  | Nup145C (natural protein, budding yeast (endogenous), UniProt P49687 606-1317, looked up) SIWGLVNEEDAEIDEDDLSKQEDGGEQPLRKVRTLAQSKPSDKEVILKTDGTFGTLSGKDDSIVEEKAYEPDLSDADFEGIEASPKLDVSKDWVEQLILAGSSLRSVFATSKEFDGPCQNEIDLLFSECNDEIDNAKLIMKERRFTASYTFAKFSTGSMLLTKDIVGKSGVSIKRLPTELQRKFLFDDVYLDKEIEKVTIEARKSNPYPQISESSLLFKDALDYMEKTSSDYNLWKLSSILFDPVSYPYKTDNDQVKMALLKKERHCRLTSWIVSQIGPEIEEKIRNSSNEIEQIFLYLLLNDVVRASKLAIESKNGHLSVLISYLGSNDPRIRDLAELQLQKWSTGGCSIDKNISKIYKLLSGSPFEGLFSLKELESEFSWLCLLNLTLCYGQIDEYSLESLVQSHLDKFSLPYDDPIGVIFQLYAANENTEKLYKEVRQRTNALDVQFCWYLIQTLRFNGTRVFSKETSDEATFAFAAQLEFAQLHGHSLFVSCFLNDDKAAEDTIKRLVMREITLLRASTNDHILNRLKIPSQLIFNAQALKDRYEGNYLSEVQNLLLGSSYDLAEMAIVTSLGPRLLLSNNPVQNNELKTLREILNEFPDSERDKWSVSINVFEVYLKLVLDNVETQETIDSLISGMKIFYDQYKHCREVAACCNVMSQEIVSKILEKNNPSIGDSKAKLLELPLGQPEKAYLRGEFAQDLMKCTYKI
 | binds | Seh1 (natural protein, budding yeast (endogenous), UniProt P53011 1-349, looked up) MQPFDSGHDDLVHDVVYDFYGRHVATCSSDQHIKVFKLDKDTSNWELSDSWRAHDSSIVAIDWASPEYGRIIASASYDKTVKLWEEDPDQEECSGRRWNKLCTLNDSKGSLYSVKFAPAHLGLKLACLGNDGILRLYDALEPSDLRSWTLTSEMKVLSIPPANHLQSDFCLSWCPSRFSPEKLAVSALEQAIIYQRGKDGKLHVAAKLPGHKSLIRSISWAPSIGRWYQLIATGCKDGRIRIFKITEKLSPLASEESLTNSNMFDNSADVDMDAQGRSDSNTEEKAELQSNLQVELLSEHDDHNGEVWSVSWNLTGTILSSAGDDGKVRLWKATYSNEFKCMSVITAQQ
